For series [1] the following is noted: ref [25]; cited from earlier work.
In another series the test system is ∆Impα3. Particulars: CD 222 nm, 60 K/h, 50 mM phosphate pH 7.0, not reversible. From the text:
Far-UV CD spectra were collected on a Jasco J810 spectropolarimeter (Jasco, Tokyo, Japan) with a thermostated cell holder, and interfaced with a Peltier unit at 298 K. The instrument was periodically calibrated with (+)-10-camphorsulphonic acid. A cell with a path length of 0.1 cm was used (Hellma, Kruibeke, Belgium). All spectra were corrected by subtracting the corresponding baseline. The concentration of each polypeptide (importin species and either NLS-NUPR1L or intact NUPR1L) was the same as that used in the fluorescence experiments (Section 4.4).

Series [2] has as its target T1, human importin α3 (Impα3), intact (human, UniProt O00629 1-521).
T1 construct: Human importin α3 (KPNA4), intact protein with the IBB domain, residues 1-521; Purification as for ∆Impα3; also called KPNA4; source: E. coli BL21 (DE3), purified (codon-optimized DNA synthesized by NZYtech, in the pHTP1 vector)
T1 sequence (looked up): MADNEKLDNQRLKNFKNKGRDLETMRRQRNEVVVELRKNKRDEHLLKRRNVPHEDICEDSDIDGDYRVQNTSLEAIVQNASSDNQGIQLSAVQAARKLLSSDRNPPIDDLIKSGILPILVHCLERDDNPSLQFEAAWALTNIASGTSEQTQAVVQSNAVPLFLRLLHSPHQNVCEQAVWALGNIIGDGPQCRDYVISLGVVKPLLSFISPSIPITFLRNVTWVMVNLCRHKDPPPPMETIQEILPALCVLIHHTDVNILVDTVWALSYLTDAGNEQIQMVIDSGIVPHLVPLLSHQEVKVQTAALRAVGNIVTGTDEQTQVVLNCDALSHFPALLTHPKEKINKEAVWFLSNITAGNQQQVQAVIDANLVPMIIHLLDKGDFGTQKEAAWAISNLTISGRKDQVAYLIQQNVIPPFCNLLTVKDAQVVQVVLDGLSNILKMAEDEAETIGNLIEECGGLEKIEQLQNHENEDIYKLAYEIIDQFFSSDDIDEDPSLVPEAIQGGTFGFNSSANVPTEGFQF
Put plainly: other fluorescence titration; importin (0-10 μM) added to a fixed concentration of NUPR1L (8 μM) or NLS-NUPR1L (8.5 μM); 50 mM phosphate buffer, pH 7.0, 298 K; excitation at 280 nm; apparent dissociation constants. The settings on record: both partners purified.

For series [3], the target named is T2, ∆Impα3, truncated species of human importin α3 (residues 64-521) depleted of the IBB (human, UniProt O00629 64-521).
T2 construct: source: E. coli BL21 (DE3), purified (codon-optimized)
T2 sequence (looked up): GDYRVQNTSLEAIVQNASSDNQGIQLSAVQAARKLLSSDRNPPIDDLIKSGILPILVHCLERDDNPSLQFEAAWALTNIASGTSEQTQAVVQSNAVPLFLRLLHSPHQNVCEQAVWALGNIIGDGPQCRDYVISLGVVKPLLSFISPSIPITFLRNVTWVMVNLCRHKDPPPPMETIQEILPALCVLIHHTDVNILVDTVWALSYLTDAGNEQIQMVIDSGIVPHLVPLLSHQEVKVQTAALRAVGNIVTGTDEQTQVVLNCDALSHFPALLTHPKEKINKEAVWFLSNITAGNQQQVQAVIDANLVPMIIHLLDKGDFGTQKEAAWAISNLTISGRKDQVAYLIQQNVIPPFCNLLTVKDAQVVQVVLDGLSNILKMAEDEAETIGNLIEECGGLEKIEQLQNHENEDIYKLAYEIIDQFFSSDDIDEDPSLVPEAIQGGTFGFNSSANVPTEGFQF
Described as above. The settings on record: both partners purified.

Series [4] has as its target T1, human importin α3 (Impα3), intact. Put plainly: ITC; Impα3 or ∆Impα3 (10-20 μM) in the cell, NLS-NUPR1L (150-300 μM) in the syringe; Tris 50 mM, pH 8, 298 K; single ligand binding site model. Particulars: both partners purified. Background: In ITC the heat of successive injections is recorded.
In series [5] the target is T2, ∆Impα3, truncated species of human …. The description is as above. Particulars: both partners purified.
Series [6] deals with T1, human importin α3 (Impα3), intact. Put plainly: other fluorescence titration; importin (0-10 μM) added to a fixed concentration of NUPR1L (8 μM) or NLS-NUPR1L (8.5 μM); 50 mM phosphate buffer, pH 7.0, 298 K; excitation at 280 nm; apparent dissociation constants. Particulars: both partners purified. This is another data set of the same source.
In series [7] the target is T2, ∆Impα3, truncated species of human …. The series is described as above. Particulars: both partners purified. This is another data set of the same source.
For series [8] the following is noted: cited from earlier work.
In another series the test system is prothymosin α. The settings on record: ref [14]; cited from earlier work. From the text: In this aspect, NLS-NUPR1L behaves not differently from any other NLS region of a well-folded protein [15, 20, 22, 40]; that is, it is disordered both in isolation and when participating in forming the complex with impo ...

Consider four molecules from publication PMC7583046, “The Paralogue of the Intrinsically Disordered Nuclear Protein 1 Has a Nuclear Localization Sequence that Binds to Human Importin α3” (International Journal of Molecular Sciences, 2020).

B1: ∆Impα3: Truncated species of Impα3 (residues 64-521) depleted of the IBB (protein, UniProt O00629 64-521, looked up, fragment)
chain: GDYRVQNTSLEAIVQNASSDNQGIQLSAVQAARKLLSSDRNPPIDDLIKSGILPILVHCLERDDNPSLQFEAAWALTNIASGTSEQTQAVVQSNAVPLFLRLLHSPHQNVCEQAVWALGNIIGDGPQCRDYVISLGVVKPLLSFISPSIPITFLRNVTWVMVNLCRHKDPPPPMETIQEILPALCVLIHHTDVNILVDTVWALSYLTDAGNEQIQMVIDSGIVPHLVPLLSHQEVKVQTAALRAVGNIVTGTDEQTQVVLNCDALSHFPALLTHPKEKINKEAVWFLSNITAGNQQQVQAVIDANLVPMIIHLLDKGDFGTQKEAAWAISNLTISGRKDQVAYLIQQNVIPPFCNLLTVKDAQVVQVVLDGLSNILKMAEDEAETIGNLIEECGGLEKIEQLQNHENEDIYKLAYEIIDQFFSSDDIDEDPSLVPEAIQGGTFGFNSSANVPTEGFQF
As to B1, the “solubility (relative to other importin species)” value in series [1] is given as “lower solubility”. In addition, in the series on ∆Impα3 (absence of NUPR1L), the “apparent thermal midpoint of unfolding of isolated ∆Impα3” value is 317 K.

B2: Impα3: Human importin α3 isoform (residues 1–521) (protein, UniProt O00629 1-521, looked up)
chain: MADNEKLDNQRLKNFKNKGRDLETMRRQRNEVVVELRKNKRDEHLLKRRNVPHEDICEDSDIDGDYRVQNTSLEAIVQNASSDNQGIQLSAVQAARKLLSSDRNPPIDDLIKSGILPILVHCLERDDNPSLQFEAAWALTNIASGTSEQTQAVVQSNAVPLFLRLLHSPHQNVCEQAVWALGNIIGDGPQCRDYVISLGVVKPLLSFISPSIPITFLRNVTWVMVNLCRHKDPPPPMETIQEILPALCVLIHHTDVNILVDTVWALSYLTDAGNEQIQMVIDSGIVPHLVPLLSHQEVKVQTAALRAVGNIVTGTDEQTQVVLNCDALSHFPALLTHPKEKINKEAVWFLSNITAGNQQQVQAVIDANLVPMIIHLLDKGDFGTQKEAAWAISNLTISGRKDQVAYLIQQNVIPPFCNLLTVKDAQVVQVVLDGLSNILKMAEDEAETIGNLIEECGGLEKIEQLQNHENEDIYKLAYEIIDQFFSSDDIDEDPSLVPEAIQGGTFGFNSSANVPTEGFQF
modifications: full-length
In the case of B2, in [1], the “solubility (relative to other importin species)” value is recorded as “larger solubility”.

B3: NLS-NUPR1L, peptide of the nuclear localization sequence of NUPR1L (residues 51-74) (peptide)
peptide: Ac-RTRREQALRTNWPAPGGHERKVAQ-NH2
notes: NUPR1L residues Arg51 to Gln74, the predicted NLS region; numbering as in intact NUPR1L; also called NLS-NUNPR1L; source: synthetic peptide (NZYtech, purity of 95%)
With B3, the Kd in series [2] turned out to be 3000 ± 1000 nM; in series [3], 5 ± 2 µM; in series [4] it was 12 ± 2 µM; in [5], 5.5 ± 0.9 µM. In addition, the values for the dH in series [4] and in series [5] were -3.1 ± 0.5 kcal/mol and -2.4 ± 0.5 kcal/mol, respectively. The “stoichiometry N” value in series [4] was found to be 1.04 ± 0.05; in series [5] it was 0.75 ± 0.06.

B4: NUPR1L, the NUPR1-like paralogue (intact) (natural protein, UniProt A6NF83 1-97, looked up)
chain: MEAPAERALPRLQALARPPPPISYEEELYDCLDYYYLRDFPACGAGRSKGRTRREQALRTNWPAPGGHERKVAQKLLNGQRKRRQRQLHPKMRTRLT
notes: NUPR1L, 97-residue-long paralogue of NUPR1, intact protein; one tryptophan (Trp62) and five tyrosines; concentrations are in protomer units; also called intact NUPR1L; source: expressed and purified as described [14]
Consider B4, for which the Kd in series [6] came to 4 ± 0.7 µM; in [7], 5 ± 1 µM. Further, the “apparent thermal midpoint of unfolding of ∆Impα3, in presence of NUPR1L” value in the series on ∆Impα3 (15 μM NUPR1L, 5 μM importin) amounted to 323 K. Moreover, the “self-association state in solution” value in series [8] (intact protein in solution, no reference at the place) is recorded as “oligomer”. Moreover, the tendency to aggregate result in [8] (intact protein, ref [14]) was “high tendency to aggregate”. Besides, the “involvement of Trp62 in binding to prothymosin α” value with prothymosin α was “Trp62 is also involved in the binding of NUPR1L to prothymosin α”.

The stoichiometry N is the number of molecules, sites or subunits per partner or assembly.
